Reference: patent US20190322747A1 (ZHEJIANG TERUISI PHARMACEUTICAL, published 2019)

Columns and labels:
Experiment in all cases: ELISA, antigen coated at 5 µg/mL, anti-HA detection, absorbance at 405 nm
[1] = biological target: CD28 (human) antigen protein, coated (human, UniProt P10747 19-152)
Experimental: (§1) (2) The antigen proteins PD-1 (human), PD-1 (monkey), PD-1 (mice), ICOS(human), CTLA-4 (human), CD28 (human), IgG1 (human) were coated overnight at 4° C. with 0.5 μg per well (5 μg/mL, 100 μL), and IgG1 was coated as a control.
(§2) (3) The plates were washed by PBST (×5) next day, and 200 μL 1% BSA was added to block in RT for 2 hours;

[2] = biological target: T1, PD-1 (mice) antigen protein, coated (mouse, UniProt Q02242 25-167, limits assumed)
T1 construct: also called mouse PD-1
T1 sequence (looked up): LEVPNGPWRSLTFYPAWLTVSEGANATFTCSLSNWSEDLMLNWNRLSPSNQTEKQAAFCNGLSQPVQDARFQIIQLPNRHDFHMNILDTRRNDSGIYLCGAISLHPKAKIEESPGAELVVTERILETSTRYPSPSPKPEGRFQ
Experimental: as §1, §2

[3] = biological target: T2, ICOS (human) antigen protein, coated (human, UniProt Q9Y6W8 21-140, limits assumed)
T2 sequence (looked up): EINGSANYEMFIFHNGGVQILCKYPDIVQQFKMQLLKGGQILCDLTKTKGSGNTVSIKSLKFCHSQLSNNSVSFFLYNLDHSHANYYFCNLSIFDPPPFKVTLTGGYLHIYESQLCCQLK
Experimental: as §1, §2

[4] = biological target: T3, CTLA-4 (human) antigen protein, coated (human, UniProt P16410 36-161, limits assumed)
T3 sequence (looked up): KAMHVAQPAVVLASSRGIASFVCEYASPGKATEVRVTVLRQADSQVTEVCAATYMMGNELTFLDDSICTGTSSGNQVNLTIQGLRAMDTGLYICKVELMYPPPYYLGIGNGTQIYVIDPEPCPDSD
Experimental: as §1, §2

Measured: binding result

CD28 (human) antigen protein, coated, sequence (P10747 19-152 limits assumed): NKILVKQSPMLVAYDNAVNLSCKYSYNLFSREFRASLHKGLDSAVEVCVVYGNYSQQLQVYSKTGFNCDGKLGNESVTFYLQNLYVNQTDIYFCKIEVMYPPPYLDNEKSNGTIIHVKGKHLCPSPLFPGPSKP

B1: humanized PD-1 nanobody (amino acid sequence SEQ ID NO.: 14) (VHH)
VHH: QVQLQESGGGLVQPGGSLRLSCAASGSTYLRFSMGWFRQVPGKGLEGVAAIGGDGRTSYADSVKGRFTISKDNSKNTLYLDMNSLRAEDTAVYYCAAAVLLDGSFSLLAPLVPYKYDYWGQGTLVTVSS
modifications: biotinylated (Example 9, sites not stated)
notes: also called Nanobody after humanization; humanized nanobody; not shown: HA and His tags from the pMECS vector
no binding (tested: 10 µg/mL): all assays above
